Holding throughout (type): biochemical, S. pristinaespiralis
Data set [1] is described as follows: Km and Vmax of purified PapM methylases, methylation 2. As to the method: (§1) The enzyme fractions to be assayed (1 to 20 units) are incubated for 30 min at 27° C. in a total volume of 200 μl of 50 mM bis-tris-propane buffer, pH 6.8, containing SAM (200 μM) the methyl group of which is radioactively labeled with the carbon 14 isotope (2 Ci/mol), in the presence of 4-amino-L-phenylalanine (1 mM) for assaying methylation 1, or of 4-methylamino-L-alanine (2.5 mM) for assaying methylation 2.
(§2) The reaction is stopped by adding 16 μl of 37% hydrochloric acid and then 20 μl of sodium heptanesulfonate at 240 g/l. After centrifugation, 150 μl of supernatant are injected into the HPLC system in the following gradient mode: • Mobile phase: Eluent A=1.2 g of heptanesulfonate+2.5 ml of glacial acetic acid+water (qs 1 000 ml). Eluent B=1.2 g of sodium heptanesulfonate+2.5 ml of glacial acetic acid+300 ml of acetonitrile+water (qs 1 000 ml). The gradient is produced in the following way: at t=0, 30% of eluent B; t=16 (min), 30% of eluent B; t=17 (min), 100% of eluent B; t=20 min, 100% of eluent B; t=21 min, 30% of eluent B; t=25 (min), 30% of eluent B. • Stationary phase: Nucleosil® C 18 5 μm×4.6 mm column (Macherey-Nagel)
(§3) On leaving the column, the substrates and products of the enzyme reaction are quantified by absorption at 254 nm. This detection is coupled to an on-line radiochemical detection using a Berthold LB506 detector equipped with a solid scintillation cell of the GT400-U4 type. This makes it possible to specifically follow the incorporation of radioactive methyl groups into the reaction products.
(§4) The unit of enzyme activity for methylation 1 (and also for methylation 2) is defined as the amount of enzyme required to incorporate 1 nmol of methyl group into 4-amino-L-phenylalanine (or into 4-methylamino-L-phenylalanine).
(§5) The conditions for assaying the methylation activity are identical to those described in example 7-1, with the exception of the 2 mM concentration of SAM, the methyl group of which is radioactively labeled with the carbon 14 isotope (2 Ci/mol). Concentration ranges varying from 0.1 to 60 mM for each of the substrates 4-amino-L-phenylalanine for methylation 1 and 4-methylamino-L-phenylalanine for methylation 2 are prepared. For each concentration of each substrate, the reaction rate is measured and expressed in nmol converted per hour and per mg of proteins.
(§6) The values of the kinetics constants are deduced from the Michaelis-Menten curves plotted using the Enzfiter software.

Data set [2] in a line: Competition assay between the two substrates. The settings on record: both substrates present: 1 mM 4-amino-L-phenylalanine, 2 mM 4-methylamino-L-phenylalanine, 2 mM SAM. As to the method: The ratio of the rates of conversion of the two competitive substrates is given by the formula: V1/V2=(Kcat1/Km1)[S1]/(Kcat2/Km2)[S2]
The amount of substrate and of enzyme brought into play is thus avoided by taking care not to convert not more than 2% of each of the substrates.
Using the same conditions for assaying the methylation activity as those described in example 7-1, with the exception of the concentration of SAM, which is 2 mM, and the methyl group of which is radioactively labeled with the carbon 14 isotope (2.5 Ci/mol), and with the simultaneous presence of the two substrates at the concentrations, for 4-amino-L-phenylalanine, of 1 mM and, for 4-methylamino-L-phenylalanine, of 2 mM, the rate of each of the reactions could thus be determined.
The assays were carried out simultaneously on the mutants described in examples 4 to 6, using the same substrate solutions.

A short description of data set [3]: Ratios of kinetic constants and enzyme efficiencies, methylation 1 / methylation 2. Here is the method: as §5, §6
For each mutant form of the enzyme, the enzyme efficiency of each methylation reaction (methylation 1 and methylation 2) was determined. This efficiency is defined by the ratio Vm1/Km1 (methylation 1) or Vm2/Km2 (methylation 2).
Then, for each form, the ratio of the enzyme efficiencies (methylation reaction 1/methylation reaction 2) was determined. This ratio is equal to Vm1.Km2/Vm2.Km1.

Data set [4] is described as follows: Km and Vmax of purified PapM methylases, methylation 1. As to the method: as §1, §2, §3, §4, §5, §6
A short description of data set [5]: Enzymatic screening: simultaneous assay of the two methylation activities of PapM (ratio r). The settings on record: 7 sequenced clones; experiment in which wild-type ratio was 0.40. The text has this:
The ratio of the respective rates V1 and V2 of methylation of L-PAPA and of L-MMPAPA is dependent on the kinetic parameters of PapM (Km1 and Vmax1 for L-PAPA, Km2 and Vmax2 for L-MMPAPA), and is also dependent on the respective concentrations S1 and S2 of L-PAPA and of L-MMPAPA, according to the formula: V1/V2=(Vmax1//Km1)[S1]/(Vmax2/Km2)[S2]
Simultaneous measurement of the two rates of methylation V1 and V2 at fixed concentrations of S1 and S2 makes it possible to determine the ratio of the kinetic constants of PapM for L-PAPA and L-MMPAPA. This ratio is independent of the amount of PapM used in the assay. When the selectivity of the mutated PapM enzyme increases for L-PAPA, the ratio V1/V2 should increase and, conversely, this ratio should decrease when the mutated PapM enzyme preferentially methylates L-MMPAPA.
Finally, in order to avoid small variations in Km and to, on the contrary, promote either large variations in Km or modifications in the Vmax values, the concentrations of L-PAPA and L-MMPAPA are fixed at approximately 6 times the Km in order to be under conditions of saturation. Under such conditions, with the wild-type PapM enzyme, the rate of methylation 1 and the rate of methylation 2 are virtually equal.
The simultaneous assaying of the two methylation activities of PapM is described in example 7.1. This assaying of the methylase activities of PapM is carried out in the presence of 1.5 mM L-PAPA, 3 mM L-MMPAPA and […].
The 96-well plates of the library of E. coli clones producing the mutated PapM enzymes, prepared as described in example 3, are thawed at 23° C. Next, 25 μl of mixture A are added to the 200 μl of the culture on LB medium contained in each well. Mixture A is obtained by adding successively (1) 3 ml of 50 mM Bis-Tris-Propane buffer, pH 10, in which have been dissolved 12 mg of L-PAPA, and 71 mg of (DL)-MMPAPA in dihydrochloride form and prepared as described in WO 96/01901-A1, (2) 0.7 ml of 4 mM SAM in water, (3) 0.7 ml of [^14C-Me]-SAM at 25 μCi/ml and 60 mCi/mmol (AMERSHAM), (4) 0.6 ml of 100 mM Bis-Tris-Propane buffer, pH 6.8, and (5) 56 mg of the disodium salt of EDTA. The amounts are given for the preparation of a 5 ml volume of mixture A. The plate is then sealed with an adhesive film, and then incubated at 27° C. for 2 hours. The reaction is stopped with 40 μl of a stop solution. The stop solution (for a volume of 4 ml) is obtained by mixing 2.2 ml of a 24 mg/ml sodium heptanesulfonate solution in water with 1.8 ml of concentrated hydrochloric acid. After centrifugation of the plates at 3 000 g for 5 min, approximately 100 μl of the supernatant of each well are analyzed by HPLC in the system described in example 7.1.
For each well, the respective areas A1 and A2 of the MMPAPA and DMPAPA peaks derived from recording the radiochemical detection are integrated. A ratio r is then calculated in the following way: r=A1/(A1+A2) In the case of the wild-type PapM methylase, r=0.50±0.05.

Setting [6] is: purified enzyme, 2 mM SAM, substrate 0.1 to 60 mM.

B1: Mutant 49/66: doubly mutated PapM, Thr192 > Ile and Gly249 > Ser, plasmids pVRC718 / pVRC721 (protein, UniProt P72542 1-292, looked up, variant T192I G249S)
4-amino-L-phenylalanine/4-meth …: MTAAAPTLAQALDEATGQLTGAGITADAARADTRLLAAHACQVAPGDLDTCLAGPVPPRFWHYVRRRLTREPAERIVGHAYFMGHRFDLAPGVFVPKPETEEITRDAIARLEALVRRGTTAPLVVDLCAGPGTMAVTLARHVPAARVLGIELSQAAARAARRNARGTGARIVQGDARDAFPELSGTVDLVVINPPYIPIGLRTSAPEVLEHDPPLALWAGEEGLGMIRAMERTAARLLAPGGVLLLEHSSYQLASVPALFRATGRWSHASSRPTCNDGCLTAVRNHTCAPPA
With B1, in data set [1] (Table 7), the Km2 was 22; the Vm2 is 9 100; the “Vm2/Km2 (enzyme efficiency, methylation 2)” value was found to be 410. The “Vm2 (MMPAPA)” value in data set [1] (purified enzyme, 2 mM SAM) is on record as 9 100 nmol/h/mg. The “Km2 (MMPAPA)” value in data set [1] (setting [6]) is on record as 22 mM. The “first methylation reaction relative to the second (selectivity)” value in data set [2] is 7 times. For the same molecule, in data set [3] (Table 5), the “Ratio Km2/Km1” value stood at 2.5 and the “Ratio Vm1/Vm2” value is 3.1. For the same molecule, the “Vm1 · Km2 / Vm2 · Km1 (ratio of enzyme efficiencies)” value in data set [3] (Table 7) is reported as 7.58. Also, in data set [4] (Table 7), the Km1 is given as 9; the Vm1 was 28 000; the “Vm1/Km1 (enzyme efficiency, methylation 1)” value was 3 110. The “Vm1 (PAPA)” value in data set [4] (purified enzyme, 2 mM SAM) is reported as 28 000 nmol/h/mg. Besides, the “Km1 (PAPA)” value in data set [4] (setting [6]) is listed as 9 mM.

B2: Mutant 74D4: PapM variant clone, Gly249 > Ser (same substitution as mutant 49) (protein, UniProt P72542 1-292, looked up, variant G249S)
4-amino-L-phenylalanine/4-meth …: MTAAAPTLAQALDEATGQLTGAGITADAARADTRLLAAHACQVAPGDLDTCLAGPVPPRFWHYVRRRLTREPAERIVGHAYFMGHRFDLAPGVFVPKPETEEITRDAIARLEALVRRGTTAPLVVDLCAGPGTMAVTLARHVPAARVLGIELSQAAARAARRNARGTGARIVQGDARDAFPELSGTVDLVVTNPPYIPIGLRTSAPEVLEHDPPLALWAGEEGLGMIRAMERTAARLLAPGGVLLLEHSSYQLASVPALFRATGRWSHASSRPTCNDGCLTAVRNHTCAPPA
Take B2: the “Ratio (r redetermined)” value in data set [5] was found to be 0.63.

B3: Mutant 74D5: PapM variant clone, Met226 > Ile (same substitution as mutant 69) (protein, UniProt P72542 1-292, looked up, variant M226I)
4-amino-L-phenylalanine/4-meth …: MTAAAPTLAQALDEATGQLTGAGITADAARADTRLLAAHACQVAPGDLDTCLAGPVPPRFWHYVRRRLTREPAERIVGHAYFMGHRFDLAPGVFVPKPETEEITRDAIARLEALVRRGTTAPLVVDLCAGPGTMAVTLARHVPAARVLGIELSQAAARAARRNARGTGARIVQGDARDAFPELSGTVDLVVTNPPYIPIGLRTSAPEVLEHDPPLALWAGEEGLGIIRAMERTAARLLAPGGVLLLEHGSYQLASVPALFRATGRWSHASSRPTCNDGCLTAVRNHTCAPPA
With B3, in data set [5], the “Ratio (r redetermined)” value was 0.52.

B4: Mutant 69: PapM variant Met226 > Ile (protein, UniProt P72542 1-292, looked up, variant M226I)
4-amino-L-phenylalanine/4-meth …: MTAAAPTLAQALDEATGQLTGAGITADAARADTRLLAAHACQVAPGDLDTCLAGPVPPRFWHYVRRRLTREPAERIVGHAYFMGHRFDLAPGVFVPKPETEEITRDAIARLEALVRRGTTAPLVVDLCAGPGTMAVTLARHVPAARVLGIELSQAAARAARRNARGTGARIVQGDARDAFPELSGTVDLVVTNPPYIPIGLRTSAPEVLEHDPPLALWAGEEGLGIIRAMERTAARLLAPGGVLLLEHGSYQLASVPALFRATGRWSHASSRPTCNDGCLTAVRNHTCAPPA
In the case of B4, the “Ratio (r redetermined)” value in data set [5] is 0.51.

B5: Mutant 52: PapM variant Gly249 > Asp (protein, UniProt P72542 1-292, looked up, variant G249D)
4-amino-L-phenylalanine/4-meth …: MTAAAPTLAQALDEATGQLTGAGITADAARADTRLLAAHACQVAPGDLDTCLAGPVPPRFWHYVRRRLTREPAERIVGHAYFMGHRFDLAPGVFVPKPETEEITRDAIARLEALVRRGTTAPLVVDLCAGPGTMAVTLARHVPAARVLGIELSQAAARAARRNARGTGARIVQGDARDAFPELSGTVDLVVTNPPYIPIGLRTSAPEVLEHDPPLALWAGEEGLGMIRAMERTAARLLAPGGVLLLEHDSYQLASVPALFRATGRWSHASSRPTCNDGCLTAVRNHTCAPPA
Consider B5, for which the “Ratio (r redetermined)” value in data set [5] is 0.66.

B6: Mutant 45: PapM variant Thr274 > Ile (protein, UniProt P72542 1-292, looked up, variant T274I)
4-amino-L-phenylalanine/4-meth …: MTAAAPTLAQALDEATGQLTGAGITADAARADTRLLAAHACQVAPGDLDTCLAGPVPPRFWHYVRRRLTREPAERIVGHAYFMGHRFDLAPGVFVPKPETEEITRDAIARLEALVRRGTTAPLVVDLCAGPGTMAVTLARHVPAARVLGIELSQAAARAARRNARGTGARIVQGDARDAFPELSGTVDLVVTNPPYIPIGLRTSAPEVLEHDPPLALWAGEEGLGMIRAMERTAARLLAPGGVLLLEHGSYQLASVPALFRATGRWSHASSRPICNDGCLTAVRNHTCAPPA
For the molecule B6, in data set [5], the “Ratio (r redetermined)” value turned out to be 0.52.

(Values after patent US7604970B2, “Variants of the PapM polypeptide of bacteria of the Streptomyces genus” (Aventis Pharma S.A., priority 2002, dated 2009).)
